# Test results reported in publication doi:10.1101/2021.02.17.431492 (bioRxiv, 2021).
# B1: DH1041 (ACE2 binding site-targeting RBD neutralizing antibody) (antibody, V domains shown)
# VH: EVQLVESGGGLVQPGGSLRLSCAASGVTFSSYWMSWVRQAPGKGLEWVANIRQDGSEKYSVDSVKGRFTISRDNAKNSLYLQMNSLRAEDTAVYYCARARRADNSGYYGFHFDCWGQGTLVTVSS
# VL: QSVLTQPPSVSGAPGQRVTISCTGSSSNIGAGYDVHWYQQLPGTAPKLLIYGNNNRPSGVPDRFSDSKSGTSASLAITRLQAEDEADYYCQSYDSSLSGWVFGGGTKLTVL
# Biological target: monomeric SARS-CoV-2 receptor binding domain (RBD) (SARS-CoV-2, UniProt P0DTC2)
# Test: ELISA
binder,measurement,value
B1,binding result,binds
